The test system of assay [1] is transcription control region for exon 1b of human aromatase gene. Kind of assay: Luciferase reporter assay, Ex1b-luc in HepG2 cell (expression of exon 1b of aromatase gene). The class given is cell-based. Particulars: 20 hours. As to the method:
The region containing transcription control region for exon 1b of human aromatase gene and a part of the exon 1b was amplified by PCR from genomic DNA extracted from human normal keratinocyte by using the following primers: […]
The resulting PCR product was treated with restriction enzymes SpeI and EcoRI, and incorporated in SpeI site and EcoRI site in SeaPansy null Control Vector (Toyo Ink Mfg. Co., Ltd.) to produce Ex1b-luc plasmid. This plasmid was used in the luciferase assay as will be described below.
Immortalized human hepatoma-derived cell (HepG2 cell) […]
The transfected cells were cultivated overnight, and plant extract prepared in Production Example 1, Table 2, or yeast extract (“YeastLiquid B”, Ichimaru Pharcos Co Ltd.), silk protein extract (“Silkgen G Soluble KE”, Ichimaru Pharcos Co Ltd.), milk protein (“Bioderma SX-14” Ichimaru Pharcos Co Ltd.), “lactoferrin S FREE”, Ichimaru Pharcos Co Ltd.), natto extract (“Soybean polymer F B-20”, Ichimaru Pharcos Co Ltd.), or royal jelly (“royal jelly extract”, Ichimaru Pharcos Co Ltd.) was added (1% or 0.1%), and the cultivation was continued for another 20 hours. After adding 20 μL of alamarBlue (BIOSOURCE), fluorescence intensity (excitation light 544 nm, fluorescence 590 nm) was measured. Luciferase activity was also measured by using PicaGene Dual SeaPansy Luminescence kit (Nippon Gene). […]
(A reporter such as luciferase makes a cellular process visible.)

For assay [2], the system named is HepG2 cell. Kind of assay: alamarBlue fluorescence in Ex1b-luc transfected HepG2 cell. The class given is cell-based, human. Particulars: 20 hours. The procedure: Immortalized human hepatoma-derived cell (HepG2 cell)
HepG2 cell was inoculated to 96 well culture plate at 30,000 cells per well, and Ex1b-luc was introduced using lipofectamine reagent (Invitrogen) according to the protocol described in the attached manual. The DNA was used at an amount of 0.1 μg per well. The same procedure was repeated for control without adding the DNA (2 wells).
The transfected cells were cultivated overnight, and plant extract prepared in Production Example 1, Table 2, or yeast extract (“YeastLiquid B”, Ichimaru Pharcos Co Ltd.), silk protein extract (“Silkgen G Soluble KE”, Ichimaru Pharcos Co Ltd.), milk protein (“Bioderma SX-14” Ichimaru Pharcos Co Ltd.), “lactoferrin S FREE”, Ichimaru Pharcos Co Ltd.), natto extract (“Soybean polymer F B-20”, Ichimaru Pharcos Co Ltd.), or royal jelly (“royal jelly extract”, Ichimaru Pharcos Co Ltd.) was added (1% or 0.1%), and the cultivation was continued for another 20 hours. After adding 20 μL of alamarBlue (BIOSOURCE), fluorescence intensity (excitation light 544 nm, fluorescence 590 nm) was measured. Luciferase activity was also measured by using PicaGene Dual SeaPansy Luminescence kit (Nippon Gene). The cells were lysed by adding 25 μL per well of the lysis buffer that had been diluted 5× lysis buffer to 1× concentration.
(In general: Alamar Blue is a resazurin reagent that responds to reducing activity.)

B1: Lactoferrin: milk protein; commercial product "Lactoferrin S FREE" (Ichimaru Pharcos) (protein, UniProt P24627 20-708, looked up)
Lactotransferrin: APRKNVRWCTISQPEWFKCRRWQWRMKKLGAPSITCVRRAFALECIRAIAEKKADAVTLDGGMVFEAGRDPYKLRPVAAEIYGTKESPQTHYYAVAVVKKGSNFQLDQLQGRKSCHTGLGRSAGWIIPMGILRPYLSWTESLEPLQGAVAKFFSASCVPCIDRQAYPNLCQLCKGEGENQCACSSREPYFGYSGAFKCLQDGAGDVAFVKETTVFENLPEKADRDQYELLCLNNSRAPVDAFKECHLAQVPSHAVVARSVDGKEDLIWKLLSKAQEKFGKNKSRSFQLFGSPPGQRDLLFKDSALGFLRIPSKVDSALYLGSRYLTTLKNLRETAEEVKARYTRVVWCAVGPEEQKKCQQWSQQSGQNVTCATASTTDDCIVLVLKGEADALNLDGGYIYTAGKCGLVPVLAENRKSSKHSSLDCVLRPTEGYLAVAVVKKANEGLTWNSLKDKKSCHTAVDRTAGWNIPMGLIVNQTGSCAFDEFFSQSCAPGADPKSRLCALCAGDDQGLDKCVPNSKEKYYGYTGAFRCLAEDVGDVAFVKNDTVWENTNGESTADWAKNLNREDFRLLCLDGTRKPVTEAQSCHLAVAPNHAVVSRSDRAAHVKQVLLHQQALFGKNGKNCPDKFCLFKSETKNLLFNDNTECLAKLGGRPTYEEYLGTEYVTAIANLKKCSTSPLLEACAFLTR
As for B1, the Luciferase activity in assay [1] (added at 0.1%) worked out at 155.2%; in assay [1] (added at 1%) it was 181.5%. For the same molecule, the AlamarBlue activity in assay [2] (added at 0.1%) came out at 135.9%; in assay [2] (added at 1%) it was 138.2%.

The record behind these values is patent publication US7887851B2, “Aromatase activator” (Kao Corporation, priority 2004, dated 2011).
